Assay results published in the nanobody polyreactivity screen of Harvey et al. (2022).

Test: yeast display, Sf9 membrane polyspecificity reagent, FACS + sequencing; frameworks hold sequencing errors
Method in brief: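 Synthetic nanobody libraries on Saccharomyces cerevisiae BJ5465 were galactose-induced for 36–48 hours, stained 1 hour at 4 °C with 10% biotinylated, detergent-solubilized Sf9 membrane reagent and enriched on streptavidin microbeads. FACS then separated cells into low and high (top ~1%) gates by anti-HA (expression) and streptavidin (reagent binding) fluorescence. Genes were colony-PCR amplified, MiSeq 2 × 250 sequenced and CDR-length filtered. A clone's polyreactivity label is that of its gate of origin.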

Sequence | polyreactivity (PSR sort gate)
QVQLVESGGGLVQAGGSLSLICAASRRSFYHYTMGWSRQAPGKERELVAAMTSGGSTYYADSVKGRFTISRDNAKNTVYLQMNSLKPEDTAVYYCARVRPLYDYSRYDYWGQRTQVTVSS | high polyreactivity
QVQLVESGGGLVQAGGSLSLSCAASGFIFYRYAMGWYRQAPGKERELVAAITSGGSTKYADSVKGRFTISRDNAKNTVYLQMNSLKPEYTAVYYCAADPFDWFSYYYWGQGTQVTVSS | low polyreactivity
QVQLVESGGGLVQAGGSLSLSCAASGFILDFNSLGWYRQAPGKERELVAAISISGVSTYYADSVKGRFTISRDNAKNTVYLQMHSLKPEDTAVYYGAAAQVAAVYWRPGGYDYWGQGTQVTVSS | low polyreactivity
QVQLVESGGGLVQAGGSLSLSCAASGFISASNVMGWYRHAPGKERELVAAINWSGDNTYYADSVKWRFTISRDTAKNTVYLLMNSLKAEDTAVYYCNDDVYSYATPEMDYWGQGTQVTVSS | low polyreactivity
QVQLVESGGGLVQAGGSLSLSCAASGFTFSWNAMGWYSQAPGKERELVATITRSGSTYYADSVKGRFTISRDNSKNTVYLQMNSLKPEDTAVYYCAVVSWYRYSRYVNDYWGQGTQVTVSS | high polyreactivity
QVQLVESGGGLVQAGGSLSLSCAASGGIFQVNSMGWYRQATGKEREVLAAISWSVGRTYYADSVKGRFTISRDNAKNTVYLQMNSLKPEDTAVYYCARYGKRGYYYWGQGTQVTVSS | low polyreactivity
QVQLVESGGGLVQAGGSLSLSCAASGITFGLYAMGWYRQATGKERELVAAITSGDRTYYADSVKGRFTISRDNAKNTVYLQMISLTPEDTAVNYCNAEAWWVYYYYGTYLAGSYYWGQGTQVTVSS | high polyreactivity
QVQLVESGGGLVQAGGSLSLSCAASGITFIHNAMGLYIQAPGKERELVAAITPSDGSTYYADSVKGRFTISRDNAKNTVFLQMNSLKPEDTAVYYCAARGRHSGYYSVPYYYWGQGTQVTVSS | low polyreactivity
QVQLVESGGGLVQAGGSLSLSCAASGITFSYYAMGWYRQAPGNERELVASINFSGGSTSYADSVKGRFTISRDNAKITVYFQMNSLKPEDPAVYYCAAQIWSKDEKHDYWGQGTKVTVSS | high polyreactivity
QVQLVESGGGLVQAGGSLSLSCAASGLIFYYYAMGWYRQAPGKERELVAAITRGGRTYYADSVKGRFTISRDNAKNTVYLQMNSLKPEDTAVYYCAAVTRVYGKTMGYWGQGTQVTVSS | high polyreactivity
QVQLVESGGGLVQAGGSLSLSCAASGLTFSAYAMGWYRQAPGKERELVAAISSGVSTNYADSVKGRFTISRDNAKNSVYLQMNSLKPEDTAVYYCKAEYWGAYEYWGQGTQVTVSS | high polyreactivity
QVQLVESGGGLVQAGGSLSLSCAASGLTSSENAMGWYRQAHGKERELVAAINVSGGSTYYADSVKGRFTISRDNAKNTVYLQMNSLKPEDTAVYYCAADNPYAYARSSWYEYNYWGQGTQVTVSS | high polyreactivity
QVQLVESGGGLVQAGGSLSLSCAASGRIFAGYAMGWYRQAPGKERELVAVISSRGGRTYYADSVKGRFTISRDNAKNTVYLQMNSLKPEDTAVYYCNRVFSYQYKRDYWGQGTQVTVSS | high polyreactivity
QVQLVESGGGLVQAGGSLSLSCAASGRIFTQYAMGWSRQAPGKERELVTAINASDGSTYADSVKGRFTISRDNAKNTVYLQMNCLIPEDTAVYYCNVTGGPYDFTRWSEFDHWGQGTQVTVSS | low polyreactivity
QVQLVESGGGLVQAGGSLSLSCAASGRILYSYAMGWYRQAPGKERELVASISLSGGRTYADSVKGRFTISRDNAKNTVYLQMNSLKPEDTAVYYCNARIRTSRYLWPFDYWGQGTQVTVSS | high polyreactivity
QVQLVESGGGLVQAGGSLSLSCAASGRTFGLNVMGWYRQAPGKERELVATISGVGSTNYADSVKWRFTISRDNAKNTVYLQMNSLKPEDTAVYYCAKDPHVGRWWDLYSPYYSWGQGTQVTVSS | low polyreactivity
